In the DeepSol protein solubility set:

experiment: soluble on expression in E. coli; label from the status in PepcDB or PDB records

Sequence	soluble on expression in E. coli
MEYKLHNGSGGLCCKGCSRQDKKLNTYDWLADIPGNAEECDMVEVQFKNTRKGYYRNSNKIKLEKGDIVAVEAAPGHDIGVVTLTGRLVPLQMKKANFKTDVEIKRIYRKAKPVDMEKFNEAKAKEHATMIRARQIALNLNLDMKIGDVEYQGDGNKAIFYYIADERVDFRQLIKVLAEAFRVRIEMKQIGARQEAGRIGGIGPCGRELCCATWMTSFVSVSTSAARFQDISLNPQKLAGQCAKLKCCLNYEVDCYVEAQKRLPSKEIELETKDGTFYFFKADILSNHVSYSTDKNFPANLVTISGKRAFEVIAMNKKGMKPDSLLEAEVKQESKKPIDLLEQESLTRFDRNRNNKDGNNGNRNKKKRKGNNDNRPQAQAESGNRPQQPQRGENENRPQPSENGNRGERGDRENRPRNNNNNNRNRGQNQGRNNENRRPERGQNQERPQNPNRPQNQERSQNQERPVNQERNQERNQERPQNRERQPKQERPQNQERPQEQGRQPNQERIPRPERNSNQEKPQNNEKPAQE	not soluble
MLLLLTFIESPIAGIPEIRKHNCLVLPHIFVCLVITKSFGRVVTSGAAVTKRAAGYFGYLAHCAADETTWYACEQFVIGHARKAVTHFIYLA	not soluble
MAHHHHHHMSDEGFEDLFILDTDPEELYEELGPIGVGNYGSVIKARNRHTQEITAIKLVLLVDKDERDFVQREISILKHCRHPNIVHYYGAHKSLSKLWIVMEYCEGGSIDMVYKVLRHPLPEPLIAYVCRQVLLGLQYLHANRKIHRDIKGGNILLTRDGGVKLADFGVSTELSHSLSRRNTFVGTLLWMAPEAILELDYDEKADLWSLGITLIEMAEGAPPYIDTHPARALFMIPKMDPPSLQDKERWSPQMTLFLKRLLTKDHNARPTATTMLNDPFVLPENIGTQEQLKAVIDEVLAKKASIDPQRMRDYTDSSATFVERTSSDGGGGDDHSTDSRDEVQPHLTAKGLTNAPANSIEALDGAGTHLFFQDGTLLPLPMLYTQDISFDELCVGEELNGPFSLPVPSVESLLVPPEQQSTACHGGEALAHTMHVTAKLKEMLYYHKQLPYCRGLTDAEAAKSREMQLKYGSVLKSVYRL	not soluble
MGSDKIHHHHHHLSKLYPHAKNRQDSGMDRNPTLAQWQLAQELRRLRGDRKFSEVVKAARTTGGSLARWETPGDRGAVPGPAALERLLQIYGAEDQLERLLSLRKEARQPDRWQPYGLERSYRTYANIESQATSIEYYQSQIVPGIAQTEAYARAVIEATLHPSSDVDREVQARMERQRVLSKPERPDLWLIIAEGALRQQVGTSQVMADQIDRLIELSQEPGITLQVLPFTAGAHVAMRLAGFVIMSIAQHGITTVYIEGQNSGMFFTDSEDLAEYGMIFNRLRAACLDEGRPTRTLLERIARDHRRGEG	not soluble
MGVQTHVLELTSSVSAEKIFQGFVIDVDTVLPKAAPGAYKSVEIKGDGGPGTLKIITLPDGGPITTMTLRIDGVNKEALTFDYSVIDGDILLGFIESIENHVVLVPTADGGSICKTTAIFHTKGDAVVPEENIKYANEQNTALFKALEAYLIAN	soluble
QVQLQQSGPELVRPGVSVKISCKGSGYTFIDEALHWVKQSHAESLEWIGVIRPYSGETNYNQKFKDKATMTVDISSSTAYLELARLTSEDSAIYYCARDWERGDFFDYWGQGTLVTVSSASTKGPSVFPLAPSSKSTSGGTAALGCLVKDYFPEPVTVSWNSGALTSGVHTFPAVLQSSGLYSLSSVVTVPSSSLGTQTYICNVNHKPSNTKVDKKVEPKSCD	soluble
MSFVQIRHISSQINRKTVSIVGSGPSGFYTAYHLLKKSPIPLNVTIWEKLPVPFGLSRYGVAPDHPEVKNCEETFTTCAEEFSSPTNQKHKFSFVGGITIGKEILLKELLDNQDAVILSYGCTGDRKLNIPGELGTKGVFSSREFVNWYNGHPDFAKDKRFTDFDWSKVSKVGIIGNGNVALDITRVLISNQIDEIWENTDISSLALNLLRRAPVKDVKLIARRDFVHSKFTNKELRELWELEKYGIRGRIDPKFFQKEMFDPSKYDRAFNRRVEMCSEYLKPFNERSKKNYKKAPPPSSGYDKFWELDYLKTPLKINRDDFGAINSLSLCNNRLNEDNSLQPLKDVNNIMTYKVDLLITSLGYAGVPMPEFSKLSIGFDKDHIANKQGRVLTSSGEIFPHLYASGWIRKGSQGVIASTMQDAFEVGDRVIQDLVVSGALSLENSIDLSNIKHTTWKDWERINKKELLRGKKEHKTRSKFLTFEELWNGVEGI	soluble
SAQDLRMSYCYAKFEGGKCSSPKSRNHSKQECCCALKGEGWGDPCELCPTEPDEAFRQICPYGSGIIVGPDDSA	soluble
SLAEPPAQDPAELAAAAESYLRQQLAALPGEPSITLDPLRTDRLDACEALTPFMPSGMRVRARMTVGLRCVAPRTWTVYAQATVSVPGQYYVAARQIAPGKTIEAADLTTRDGDLVALPPGVITDAAAILGMRPAHRIAAGQPIKGAGLRSAESVSRGQSVRITARGNGFVVSSEGQALDNAPPGATVQVRTASGQVVSGIVQAAGLVEIQL	not soluble
MSLSLDESNTALAEEFDNWDLEFKLWELVDRLFRFRALFSNKAKTELLREYDFSSMGIKQENFLRKNPAIRELSIIILWLQSHTPSLVGDETESYQTKWKNTAMAVANSDFDVLASRATDADLIDKLDIDAPLRSNRSIHPADESNDSKVFAQIYKLLLQDRVQDAIDIANNTGNYALALILVGATQEYFDPVLDKEGHHHHHH	soluble
MMRTWQSKLHVTQHEVKLLVTCPEQGDVLKARLPPHARHPRALLTLLEGLSLYNGQPQRIALHVDERFRLTAGLFGDELWPGESPLVQYDVAHRARQCGRLSGIGDFRALRRGSP	not soluble
MAANRVAMEEDITESVTLMVDSVSSSPMTPKTVTVKEDETHHPYAFHVSGPRNVASPNWRDLINSSWKDPNYKRTVMACFIQAAYLLELDRQENRNEQNALAPKWWIPFKYKLSQTLIDERDGSIFGAVLEWDRAAAMADLVVIRPSGAPKAVLALRGTILKSLTMRRDIEDDLRFLAWESLKGSVRFNVALEALQSVATRYGSSNVCVVGHSLGAGFALQVGKSLAKEGLFVDAHLFNPPSISVAMSLRNISEKAGVAWKRLMSMLPPKHEPLIQNSNEGQVSPSNVSSGFRNWVPSFYGSNQKPTVDLRKWVPHLYVNDSDYICCHYTDQDGVAEKREMNNKENNSPVVNTNFQAAAKLFVMSKGKQKFHEAHGLEQWWSDNLELQSAIHSSRLISQQLKSLYSIK	soluble
GSHMFKCMEALGMESGEIHSDQITASSQYSTNWSAERSRLNYPENGWTPGEDSYREWIQVDLGLLRFVTAVGTQGAISKETKKKYYVKTYKIDVSSNGEDWITIKEGNKPVLFQGNTNPTDVVVAVFPKPLITRFVRIKPATWETGISMRFEVYGCKITDYPCSGMLGMVSGLISDSQITSSNQGDRNWMPENIRLVTSRSGWALPPAPHSYINEWLQIDLGEEKIVRGIIIQGGKHRENKVFMRKFKIGYSNNGSDWKMIMDDSKRKAKSFEGNNNYDTPELRTFPALSTRFIRIYPERATHGGLGLRMELLGCEVE	soluble
STEDSVKAVKRAADDDPHTETEHEDKKLKTDQEERKYPKKKVALLMAYSGKGYYGMQRNARNSQFKTIEDELVTALVGARCIPEGHAEEMKKMSFQRSARTDKGVSAVGRVVSLKVWMIENILEKINAHLPPRIRVLGCKRVTGGFNSKNNCYARTYSYMLPTVAFSPKDYNQEDTSFRLTSDTLQTVNRLFCLYKGTHNFHNFTSQKGHRDPSAMRYITHMSCGEPFIRKDVEFAVITVRGQSFMMHQIRKMIGLVIAVVKGYVDEGVMEKSWGEEKVGVSKAPGLGLVLERVHFDGYNKRFGGDGIHETLEWTEQEEAIADFKEKHIYPTIVDTELNERSMVNWMTSLCIHDFEETATGNQDRKDDDEDGSASD	soluble
